# Measured values from patent US20240166755A1, “CHIMERIC ANTIGEN RECEPTORS TARGETING CANCER” (University of Southern California, priority 2016, published 2024).
# “Also recorded” adds a separate entry of the source.
# B1: CD8SP-CD19Bu12-(vL-vH)-Myc-BBz-T2A-PAC(082815-P08): CD19 CAR with scFv from humanized CD19 antibody huCD19-Bu12, 41BB and CD3z (protein)
# chain: MALPVTALLLPLALLLHAARPDEIVLTQSPATLSLSPGERATLSCSASSSVSYMHWYQQKPGQAPRLLIYDTSKLASGIPARFSGSGSGTDFTLTISSLEPEDVAVYYCFQGSVYPFTFGQGTKLEIKRGGGGSGGGGSGGGGSQVQLQESGPGLVKPSQTLSLTCTVSGGSISTSGMGVGWIRQHPGKGLEWIGHIWWDDDKRYNPALKSRVTISVDTSKNQFSLKLSSVTAADTAVYYCARMELWSYYFDYWGQGTLVTVSSTREQKLISEEDLAKPTTTPAPRPPTPAPTIASQPLSLRPEACRPAAGGAVHTRGLDFACDIYIWAPLAGTCGVLLLSLVITLYCKRGRKKLLYIFKQPFMRPVQTTQEEDGCSCRFPEEEEGGCELRVKFSRSADAPAYQQGQNQLYNELNLGRREEYDVLDKRRGRDPEMGGKPRRKNPQEGLYNELQKDKMAEAYSEIGMKGERRRGKGHDGLYQGLSTATKDTYDALHMQALPPRSSGSGEGRGSLLTCGDVEENPGPHMTEYKPTVRLATRDDVPRAVRTLAAAFADYPATRHTVDPDRHIERVTELQELFLTRVGLDIGKVWVADDGAAVAVWTTPESVEAGAVFAEIGPRMAELSGSRLAAQQQMEGLLAPHRPKEPAWFLATVGVSPDHQGKGLGSAVVLPGVEAAERAGVPAFLETSAPRNLPFYERLGFTVTADVEVPEGPRTWCMTRKPGA
# modifications: listed as DNA
# B2: CD8SP-DLL3-hSC16-13-(vL-vH)-Myc-BBz-T2A-PAC(052516-D07)[SEQ ID NO: 1584] (protein)
# chain: MALPVTALLLPLALLLHAARPDIQMTQSPSSLSASVGDRVTITCSASSSVSYMYWYQQKPGKAPKLLIYLTSNLASGVPSRFSGSGSGTDFTLTISSLQPEDFATYYCQQWRSNPFTFGQGTKLEIKRGGGGSGGGGSGGGGSQITLKESGPTLVKPTQTLTLTCTFSGFSLSTSGMGVGWIRQPPGKALEWLAHIWWDDVKRYSPSLKSRLTITKDTSKNQVVLTMTNMDPVDTATYYCARIVSFDNDVVSAMDYWGQGTLVTVSSTREQKLISEEDLAKPTTTPAPRPPTPAPTIASQPLSLRPEACRPAAGGAVHTRGLDFACDIYIWAPLAGTCGVLLLSLVITLYCKRGRKKLLYIFKQPFMRPVQTTQEEDGCSCRFPEEEEGGCELRVKFSRSADAPAYQQGQNQLYNELNLGRREEYDVLDKRRGRDPEMGGKPRRKNPQEGLYNELQKDKMAEAYSEIGMKGERRRGKGHDGLYQGLSTATKDTYDALHMQALPPRSSGSGEGRGSLLTCGDVEENPGPHMTEYKPTVRLATRDDVPRAVRTLAAAFADYPATRHTVDPDRHIERVTELQELFLTRVGLDIGKVWVADDGAAVAVWTTPESVEAGAVFAEIGPRMAELSGSRLAAQQQMEGLLAPHRPKEPAWFLATVGVSPDHQGKGLGSAVVLPGVEAAERAGVPAFLETSAPRNLPFYERLGFTVTADVEVPEGPRTWCMTRKPGA
# modifications: listed as DNA
# B3: CD8SP-CD324-hSC10-17-(vL-vH)-Myc-BBz-T2A-PAC(052516-A07)[SEQ ID NO: 1555] (protein)
# chain: MALPVTALLLPLALLLHAARPDVVMTQSPLSLPVTLGQPASISCRSSQSIVHSDGNTYLEWYQQRPGQSPRRLIYKVSNRFSGVPDRFSGSGSGTDFTLKISRVEAEDVGVYYCFQGSHAPWTFGGGTKVEIKGGGGSGGGGSGGGGSEVQLVESGGGLVQPGGSLRLSCAASGFTFSSYGMHWVRQAPGKGLEWVAYITTRSSTIYYADSVKGRFTISRDNAKNSLYLQMNSLRAEDTAVYYCTREPLTGYYAMDYWGQGTSVTVSSTREQKLISEEDLAKPTTTPAPRPPTPAPTIASQPLSLRPEACRPAAGGAVHTRGLDFACDIYIWAPLAGTCGVLLLSLVITLYCKRGRKKLLYIFKQPFMRPVQTTQEEDGCSCRFPEEEEGGCELRVKFSRSADAPAYQQGQNQLYNELNLGRREEYDVLDKRRGRDPEMGGKPRRKNPQEGLYNELQKDKMAEAYSEIGMKGERRRGKGHDGLYQGLSTATKDTYDALHMQALPPRSSGSGEGRGSLLTCGDVEENPGPHMTEYKPTVRLATRDDVPRAVRTLAAAFADYPATRHTVDPDRHIERVTELQELFLTRVGLDIGKVWVADDGAAVAVWTTPESVEAGAVFAEIGPRMAELSGSRLAAQQQMEGLLAPHRPKEPAWFLATVGVSPDHQGKGLGSAVVLPGVEAAERAGVPAFLETSAPRNLPFYERLGFTVTADVEVPEGPRTWCMTRKPGA
# modifications: listed as DNA
# B4: CD8SP-175-(vL-vH)-Myc-CD28z-T2A-PAC(031615-Q04): CAR construct targeting MPL, 175 scFv, CD28 costimulatory domain (protein)
# chain: MALPVTALLLPLALLLHAARPDQIVLTQSPAIMSASPGEKVTISCSASSSVSYMYWYQQKPGSSPKPWIYRTSNLASGVPARFSGSGSGTSYSLTISNMEAEDAAAYYCQQYHSYPTTFGGGTKLEVKGGGGSGGGGSGGGGSEVQLVESGGGLVQPKGSLKLSCAASGFSFNTYAMNWVRQAPGKGLEWIAHIRSKSNNFATYYADSVKDRFSISRDASENILFLQMNNLKTEDTAMYYCVRQGGDFPMDYWGQGTSVTVSSTREQKLISEEDLKIEVMYPPPYLDNEKSNGTIIHVKGKHLCPSPLFPGPSKPFWVLVVVGGVLACYSLLVTVAFIIFWVRSKRSRLLHSDYMNMTPRRPGPTRKHYQPYAPPRDFAAYRSRVKFSRSADAPAYQQGQNQLYNELNLGRREEYDVLDKRRGRDPEMGGKPRRKNPQEGLYNELQKDKMAEAYSEIGMKGERRRGKGHDGLYQGLSTATKDTYDALHMQALPPRSSGSGEGRGSLLTCGDVEENPGPHMTEYKPTVRLATRDDVPRAVRTLAAAFADYPATRHTVDPDRHIERVTELQELFLTRVGLDIGKVWVADDGAAVAVWTTPESVEAGAVFAEIGPRMAELSGSRLAAQQQMEGLLAPHRPKEPAWFLATVGVSPDHQGKGLGSAVVLPGVEAAERAGVPAFLETSAPRNLPFYERLGFTVTADVEVPEGPRTWCMTRKPGA
# modifications: listed as DNA
# notes: CAR construct targeting MPL, 175 scFv, CD28 costimulatory domain
# Legend:
# [1] = tested on: RAJI cells stably expressing GLuc; assay: GLuc cell death assay, RAJI-GLuc target cells
# From the text: Cells were left unselected or selected with puromycin and expanded.
# [2] = tested on: target cells expressing their respective target antigen; assay: Jurkat-NFAT-GFP assay, co-culture with target cells expressing the respective target antigen (Table 28); conditions: Jurkat-NFAT-GFP cells expressing the CAR; cell line(s) giving greater % GFP positive cells than parental
# [3] = tested on: MPL-expressing HEL.92.1.7 (HEL) cells; assay: Jurkat-NFAT-EGFP reporter assay, co-culture with HEL cells (Table 25); format: cell-based, human; conditions: FACS
# From the text: (§1) Cells were subsequently co-cultured with MPL-expressing HEL.92.1.7 (HEL) cells. […] CAR construct with HEL cells. The experiment was repeated by co-culturing the Jurkat-NFAT-EGFP cells with either RAJI cells, which have weak MPL expression, or with RAJI-MPL cells that were engineered to ectopically express human MPL receptor.
# RAJI-MPL cells = assay: Jurkat-NFAT-EGFP reporter assay, co-culture with RAJI-MPL or RAJI-vector cells (Table 25); format: cell-based, human; conditions: RAJI-MPL cells compared with RAJI-vector cells
# From the text: as §1
# [4] = tested on: HEL cells stably expressing GLuc; assay: GLuc cell death assay, HEL-GLuc target cells
# Description: The blood samples to isolate Peripheral blood mononuclear cells (PBMCs) were obtained from healthy de-identified adult donors. PBMC were isolated from buffy coats by Ficoll-Hypaque gradient centrifugation and re-suspended in XVIVO medium (Lonza) supplanted with 10 ng/ml soluble anti-CD3, 10 ng/ml soluble anti-CD28 and 100 IU recombinant human-IL2. […] The PBMC expressing the indicated CARs and uninfected PBMC were co-cultured with HEL-GLuc target cells for 4 h and lysis of target cells measured by the single-step homogenous GLuc assay by injecting 0.5× CTZ assay buffer as described above.
# Cells were selected with puromycin and expanded.
# Cells were subsequently co-cultured overnight with HEL.92.1.7 cells that had been engineered to express GLuc.
# [5] = tested on: Jurkat cells stably expressing MPL and GLuc; assay: GLuc cell death assay, Jurkat-MPL-GLuc target cells; conditions: T cells, puromycin selected, E:T 10:1, 4 hours
molecule,measurement,setting,value
B1,cell death (increase in Gluc activity),[1]; RAJI-pLenti-Gluc cells incubated with the CAR-T cells,significant induction of cell death
same,GLuc activity (lysis of target cells),"[1]; T cells with or without puromycin selection, E:T 10:1, 96 hours",increase in GLuc activity
B2,Positive Cell Line on co-culture assay,[2],"LAN5, SKMEL31,; also recorded: SKMEL317"
B3,Positive Cell Line on co-culture assay,[2],MDAMB-231
B4,EGFP expression (NFAT-EGFP reporter),[3],strongest
same,EGFP expression (NFAT-EGFP reporter),RAJI-MPL cells,strongest
same,killing of HEL-GLuc cells,"[4]; CAR-expressing PBMC, 4 h, versus uninfected PBMC",increased killing
same,GLuc activity (lysis of target cells),"[4]; T cells, puromycin selected, E:T 10:1, 4 hours",stronger
same,GLuc activity (lysis of target cells),[5],stronger
